This note sets out measurements from the supplement of paper PMC9112550, “Optimization of the antimicrobial peptide Bac7 by deep mutational scanning” (BMC Biology, 2022).

For the data set, the system named is Escherichia coli TOP10. The data set is described as follows: shrunken log2 fold change of peptide-encoding DNA abundance (4.5 h post-induction vs induction); higher = less antimicrobial activity (less host growth inhibition). The following applies: time post-induction: 4.5 h; library: site-saturation at positions 5, 18, 19, 20.
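Further: peptides expressed intracellularly from a pBAD plasmid library in pooled LB shake-flask culture, induced with 0.3% L-arabinose, DNA abundance read by NGS, three biological replicates, DESeq2 with apeglm shrinkage.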

With RRIRSRPPRLPRPRPRPLWHPRP, the “shrunken log2 fold change” value was -0.289.
As to RRIRLRPPRLPRPRPRPVVVPRP, the “shrunken log2 fold change” value came to 1.45.
With RRIRTRPPRLPRPRPRPHEKPRP, the “shrunken log2 fold change” value is -0.0018.
To RRIRRRPPRLPRPRPRPIWYPRP belongs 0.00744.
Regarding RRIRGRPPRLPRPRPRPHFVPRP, the “shrunken log2 fold change” value turned out to be 0.466.
As to RRIRERPPRLPRPRPRPWALPRP, the “shrunken log2 fold change” value was -0.144.
To RRIRLRPPRLPRPRPRPCFHPRP belongs -0.49; to RRIRERPPRLPRPRPRPGPMPRP, 0.224.
Consider RRIRLRPPRLPRPRPRPYLYPRP, for which the “shrunken log2 fold change” value is -0.164.
To RRIRHRPPRLPRPRPRPFEDPRP belongs 0.0112; to RRIRTRPPRLPRPRPRPHPKPRP, -0.0492; to RRIRPRPPRLPRPRPRPFSEPRP, -0.436.
With RRIRARPPRLPRPRPRPKTIPRP, the “shrunken log2 fold change” value turned out to be 0.038.
As for RRIRYRPPRLPRPRPRPKPCPRP, the figure is -0.0304; as for RRIRDRPPRLPRPRPRPIWRPRP, 0.235.
As for RRIRHRPPRLPRPRPRPRIVPRP, the figure is 0.00411.
Regarding RRIRCRPPRLPRPRPRPTCCPRP, the “shrunken log2 fold change” value was -0.354.
As for RRIRRRPPRLPRPRPRPYFCPRP, the figure is -0.285.
To RRIRSRPPRLPRPRPRPPYSPRP belongs -0.379.
In the case of RRIRTRPPRLPRPRPRPQMKPRP, the “shrunken log2 fold change” value was -0.449.
As for RRIRCRPPRLPRPRPRPTCLPRP, the figure is 0.00222; as for RRIRERPPRLPRPRPRPKKKPRP, -0.0784.
As for RRIRWRPPRLPRPRPRPDFTPRP, the figure is 0.15.
Regarding RRIRWRPPRLPRPRPRPKLTPRP, the “shrunken log2 fold change” value was 0.475.
With RRIRLRPPRLPRPRPRPEIGPRP, the “shrunken log2 fold change” value came to 0.0748.
As for RRIRVRPPRLPRPRPRPEGTPRP, the figure is -0.00568; as for RRIRKRPPRLPRPRPRPGENPRP, 0.318.
To RRIRPRPPRLPRPRPRPGARPRP belongs 1.19; to RRIRLRPPRLPRPRPRPSKPPRP, -0.0779; to RRIRMRPPRLPRPRPRPSYPPRP, -0.412.
With RRIRCRPPRLPRPRPRPAALPRP, the “shrunken log2 fold change” value came to 0.219.
As for RRIRGRPPRLPRPRPRPVACPRP, the figure is 0.72; as for RRIRHRPPRLPRPRPRPVPKPRP, 0.0819.
As for RRIRARPPRLPRPRPRPCNPPRP, the figure is -0.0307.
To RRIRFRPPRLPRPRPRPTQVPRP belongs -0.284; to RRIRERPPRLPRPRPRPREHPRP, -0.0329; to RRIRQRPPRLPRPRPRPSHMPRP, 0.109.
RRIRLRPPRLPRPRPRPSTSPRP: the “shrunken log2 fold change” value was -0.0196.
As for RRIRQRPPRLPRPRPRPIHRPRP, the figure is -0.0654; as for RRIRWRPPRLPRPRPRPYYPPRP, -1.09; as for RRIRWRPPRLPRPRPRPCVIPRP, -0.059.
RRIRWRPPRLPRPRPRPTCKPRP: the “shrunken log2 fold change” value is -0.0078.
As for RRIRHRPPRLPRPRPRPIFYPRP, the figure is -0.204.
To RRIRTRPPRLPRPRPRPGAIPRP belongs -0.0669; to RRIRHRPPRLPRPRPRPEFEPRP, 0.0692; to RRIRQRPPRLPRPRPRPRRSPRP, -0.0497.
As for RRIRERPPRLPRPRPRPFKRPRP, the figure is 0.0596.
Regarding RRIRQRPPRLPRPRPRPSFQPRP, the “shrunken log2 fold change” value was -0.467.
Turning to RRIRFRPPRLPRPRPRPLTVPRP, the “shrunken log2 fold change” value is -0.73.
On to RRIRNRPPRLPRPRPRPPEPPRP, for which the “shrunken log2 fold change” value was found to be 0.184.
Regarding RRIRDRPPRLPRPRPRPITLPRP, the “shrunken log2 fold change” value is -0.0934.
As for RRIRFRPPRLPRPRPRPETCPRP, the figure is -0.0911; as for RRIRERPPRLPRPRPRPWDTPRP, -0.623.
For RRIRKRPPRLPRPRPRPHGPPRP, the “shrunken log2 fold change” value stood at 0.0129.
In the case of RRIRIRPPRLPRPRPRPSMWPRP, the “shrunken log2 fold change” value is -0.178.
As for RRIRLRPPRLPRPRPRPAYFPRP, the figure is -0.364; as for RRIRHRPPRLPRPRPRPLVEPRP, -0.0289.
To RRIRDRPPRLPRPRPRPEMTPRP belongs 0.679; to RRIRHRPPRLPRPRPRPQPQPRP, -0.00539.
In the case of RRIRKRPPRLPRPRPRPMYVPRP, the “shrunken log2 fold change” value was -0.0793.
To RRIRYRPPRLPRPRPRPSMTPRP belongs -0.817.
As for RRIRSRPPRLPRPRPRPAENPRP, the figure is 0.151; as for RRIRVRPPRLPRPRPRPISHPRP, -0.326.
As for RRIRWRPPRLPRPRPRPYYGPRP, the “shrunken log2 fold change” value was -0.0686.
As for RRIRLRPPRLPRPRPRPYCTPRP, the figure is 1.26.
Take RRIRPRPPRLPRPRPRPWLFPRP: the “shrunken log2 fold change” value is -0.0483.
Consider RRIRIRPPRLPRPRPRPYIDPRP, for which the “shrunken log2 fold change” value was -0.484.
In the case of RRIRPRPPRLPRPRPRPKPCPRP, the “shrunken log2 fold change” value was -0.044.
As for RRIRRRPPRLPRPRPRPKVEPRP, the “shrunken log2 fold change” value is -0.0016.
Take RRIRYRPPRLPRPRPRPGWVPRP: the “shrunken log2 fold change” value worked out at 0.0444.
Take RRIRGRPPRLPRPRPRPCFEPRP: the “shrunken log2 fold change” value worked out at 0.629.
As for RRIRTRPPRLPRPRPRPTYKPRP, the figure is -0.651.
As for RRIRCRPPRLPRPRPRPDIQPRP, the figure is -0.268; as for RRIRHRPPRLPRPRPRPNDAPRP, -0.2.
In the case of RRIRYRPPRLPRPRPRPKQGPRP, the “shrunken log2 fold change” value came to 0.0737.
To RRIRGRPPRLPRPRPRPGFDPRP belongs 0.97; to RRIRSRPPRLPRPRPRPERDPRP, 0.138; to RRIRHRPPRLPRPRPRPKQEPRP, 0.0169.
Consider RRIRCRPPRLPRPRPRPRCRPRP, for which the “shrunken log2 fold change” value amounted to 0.285.
With RRIRKRPPRLPRPRPRPDDPPRP, the “shrunken log2 fold change” value came out at 0.237.
For RRIRDRPPRLPRPRPRPQDKPRP, the “shrunken log2 fold change” value was -0.592.
With RRIRERPPRLPRPRPRPPTQPRP, the “shrunken log2 fold change” value amounted to 0.159.
As for RRIRPRPPRLPRPRPRPLRNPRP, the figure is 0.673; as for RRIRKRPPRLPRPRPRPMMYPRP, -0.00208.
To RRIRNRPPRLPRPRPRPEIVPRP belongs 0.106; to RRIRGRPPRLPRPRPRPIDTPRP, 0.306; to RRIRMRPPRLPRPRPRPIIQPRP, -0.402.
As for RRIRSRPPRLPRPRPRPMHKPRP, the figure is -0.112; as for RRIRFRPPRLPRPRPRPKLYPRP, -0.481; as for RRIRDRPPRLPRPRPRPMKWPRP, 0.139.
Turning to RRIRNRPPRLPRPRPRPYELPRP, the “shrunken log2 fold change” value is -0.0122.
